Values quoted from earlier work as cited in patent US20220062372A1, “METHODS FOR TREATING DISEASE AND REDUCING DRUG-INDUCED LIVER INJURY IN PATIENT POPULATIONS” (Ten Peaks LLC, priority 2020, published 2022).

Conditions: background description of the marketed drug

B1: KEVZARA: IL-6 receptor antagonist (antibody, chains of the INN, looked up, V domains shown)
VH: EVQLVESGGGLVQPGRSLRLSCAASRFTFDDYAMHWVRQAPGKGLEWVSGISWNSGRIGYADSVKGRFTISRDNAENSLFLQMNGLRAEDTALYYCAKGRDSFDIWGQGTMVTVSS
VL: DIQMTQSPSSVSASVGDRVTITCRASQGISSWLAWYQQKPGKAPKLLIYGASSLESGVPSRFSGSGSGTDFTLTISSLQPEDFASYYCQQANSFPYTFGQGTKLEIK
hepatic adverse reactions reported in patients: associated with a higher incidence of transaminase elevations
